Values of other authors in publication PMC8980424.

Legend:
IFNAR1 (Mus musculus) = IFNAR1 (Mus musculus) (UniProt P33896)
IFNAR2 (Mus musculus) = IFNAR2 (Mus musculus) (UniProt O35664)
IFNAR1 (Homo sapiens) = IFNAR1 (Homo sapiens) (UniProt P17181)
IFNAR2 (Homo sapiens) = IFNAR2 (Homo sapiens) (UniProt P48551)
UniProt P48551, sequence (P48551 27-243): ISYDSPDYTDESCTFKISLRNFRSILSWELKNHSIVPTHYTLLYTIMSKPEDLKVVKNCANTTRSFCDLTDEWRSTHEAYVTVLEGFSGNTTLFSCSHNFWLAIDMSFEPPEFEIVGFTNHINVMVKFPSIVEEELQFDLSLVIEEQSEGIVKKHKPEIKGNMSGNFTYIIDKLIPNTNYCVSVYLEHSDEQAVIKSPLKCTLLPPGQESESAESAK

UniProt P33896, sequence (P33896 27-429): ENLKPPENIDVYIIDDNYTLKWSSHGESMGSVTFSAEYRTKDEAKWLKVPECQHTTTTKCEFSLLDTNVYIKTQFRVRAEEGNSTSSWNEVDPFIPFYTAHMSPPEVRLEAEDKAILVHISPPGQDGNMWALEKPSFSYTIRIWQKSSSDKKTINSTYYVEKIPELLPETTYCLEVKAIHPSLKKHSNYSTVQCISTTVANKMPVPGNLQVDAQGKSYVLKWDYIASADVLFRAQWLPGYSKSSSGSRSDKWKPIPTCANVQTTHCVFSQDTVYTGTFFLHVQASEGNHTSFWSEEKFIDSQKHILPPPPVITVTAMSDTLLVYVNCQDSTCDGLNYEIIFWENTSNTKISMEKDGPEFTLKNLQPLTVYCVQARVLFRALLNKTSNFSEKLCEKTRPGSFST
UniProt P17181, sequence (P17181 28-436): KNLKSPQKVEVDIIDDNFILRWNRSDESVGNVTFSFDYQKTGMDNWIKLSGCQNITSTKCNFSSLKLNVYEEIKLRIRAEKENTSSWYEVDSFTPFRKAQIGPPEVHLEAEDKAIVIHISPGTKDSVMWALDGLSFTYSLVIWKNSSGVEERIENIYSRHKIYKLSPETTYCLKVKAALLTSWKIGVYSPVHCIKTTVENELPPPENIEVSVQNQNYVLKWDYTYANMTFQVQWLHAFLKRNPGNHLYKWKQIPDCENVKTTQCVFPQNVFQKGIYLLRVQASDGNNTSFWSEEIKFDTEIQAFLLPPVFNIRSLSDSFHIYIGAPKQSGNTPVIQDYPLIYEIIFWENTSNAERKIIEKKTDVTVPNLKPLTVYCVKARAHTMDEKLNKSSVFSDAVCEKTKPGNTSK
UniProt O35664, sequence (O35664 22-242): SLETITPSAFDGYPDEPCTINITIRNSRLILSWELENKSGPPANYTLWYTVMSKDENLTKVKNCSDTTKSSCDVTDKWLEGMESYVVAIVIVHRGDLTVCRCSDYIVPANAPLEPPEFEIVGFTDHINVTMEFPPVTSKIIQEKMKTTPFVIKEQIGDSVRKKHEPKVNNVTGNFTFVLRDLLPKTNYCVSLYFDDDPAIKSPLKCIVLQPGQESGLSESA

Kd (IFNAR1 (Mus musculus)) [nM]	Kd (IFNAR2 (Mus musculus)) [nM]	Kd (IFNAR1 (Homo sapiens)) [nM]	Kd (IFNAR2 (Homo sapiens)) [nM]	Substance
10	1700	–	–	Interferon beta (from UniProt P01575)
–	–	30	0.1	Interferon beta (from UniProt P01574)
